Reference: PMC7129780 (Cytokine, 2019)
Where a chain is given by its changes, count along the chain named. In names and notes the source's numbering stands.

T1: IL10Rβ (UniProt Q08334 20-220)
T1 sequence (looked up): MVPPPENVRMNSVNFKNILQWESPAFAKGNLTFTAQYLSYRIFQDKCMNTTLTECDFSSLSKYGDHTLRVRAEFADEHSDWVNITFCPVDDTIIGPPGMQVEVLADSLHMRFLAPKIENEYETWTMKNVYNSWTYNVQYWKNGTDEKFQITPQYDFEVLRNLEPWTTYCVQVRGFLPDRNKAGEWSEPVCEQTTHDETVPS

T2: IFNλR1 (UniProt Q8IU57 21-228)
T2 sequence (looked up): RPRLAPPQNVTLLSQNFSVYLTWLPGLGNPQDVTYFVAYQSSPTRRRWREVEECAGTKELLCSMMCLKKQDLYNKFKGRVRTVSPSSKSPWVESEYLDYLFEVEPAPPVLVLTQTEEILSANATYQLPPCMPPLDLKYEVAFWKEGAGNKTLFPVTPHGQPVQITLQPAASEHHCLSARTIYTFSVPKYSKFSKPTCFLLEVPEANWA

B1: IFNλ4 variant M1 (L28N) (ligand, human, UniProt K9M1U5 22-179, looked up)
chain: AAPRRCNLSHYRSLEPRTLAAAKALRDRYEEEALSWGQRNCSFRPRRDPPRPSSCARLRHVARGIADAQAVLSGLHRSELLPGAGPILELLAAAGRDVAACLELARPGSSRKVPGAQKRRHKPRRADSPRCRKASVVFNLLRLLTWELRLAAHSGPCL
modifications: biotinylated (site not stated) for BLI; N-glycan at N61; mutated L28N not glycosylated
B2: IFNλ4 variant M3 (P73N) (ligand, human, UniProt K9M1U5 22-179, looked up)
chain: B1 chain with N7L, P52N
modifications: biotinylated (site not stated) for BLI; N-glycans at N61 and at mutated P73N
B3: IFNλ4 WT purified from E. coli (eIFNλ4) (ligand, human, UniProt K9M1U5 22-179, looked up)
chain: B1 chain with N7L
modifications: biotinylated (site not stated) for BLI
B4: IFNλ4 variant M7 (L28N + P73N) (ligand, human, UniProt K9M1U5 22-179, looked up)
chain: B1 chain with P52N
modifications: biotinylated (site not stated) for BLI; N-glycans at N61 and at mutated P73N; mutated L28N not glycosylated

How the values were obtained:
IL10Rβ = molecular target: T1, IL10Rβ; assay: BLI
IFNλR1 = molecular target: T2, IFNλR1; assay: BLI

Row | Binder | Kd (IL10Rβ) [nM] | Kd (IFNλR1) [nM]
1 | B1 | 49 | 14
2 | B2 | 51 | 22
3 | B3 | 71 | 19
4 | B4 | 49 | 17
